From US20100169988A1 (published 2010)

B1: Malate dehydrogenase; cytoplasmic (enzyme, mouse, UniProt P14152 2-334, looked up)
chain: SEPIRVLVTGAAGQIAYSLLYSIGNGSVFGKDQPIILVLLDITPMMGVLDGVLMELQDCALPLLQDVIATDKEEIAFKDLDVAVLVGSMPRREGMERKDLLKANVKIFKSQGTALEKYAKKSVKVIVVGNPANTNCLTASKSAPSIPKENFSCLTRLDHNRAKSQIALKLGVTADDVKNVIIWGNHSSTQYPDVNHAKVKLQGKEVGVYEALKDDSWLKGEFITTVQQRGAAVIKARKLSSAMSAAKAIADHIRDIWFGTPEGEFVSMGVISDGNSYGVPDDLLYSFPVVIKNKTWKFVEGLPINDFSREKMDLTAKELTEEKETAFEFLSSA
B2: Creatine kinase; B chain (enzyme)
chain: not shown
B3: Pyruvate kinase; isozyme M2 (enzyme)
chain: not shown
notes: also called pyruvate kinase isozyme M1/2
B4: Ubiquitin carboxyl-terminal hydrolase isozyme L1 (UCH-L1) (enzyme, mouse, UniProt Q9R0P9 1-220, looked up)
chain: MQLKPMEINPEMLNKVLAKLGVAGQWRFADVLGLEEETLGSVPSPACALLLLFPLTAQHENFRKKQIEELKGQEVSPKVYFMKQTIGNSCGTIGLIHAVANNQDKLEFEDGSVLKQFLSETEKLSPEDRAKCFEKNEAIQAAHDSVAQEGQCRVDDKVNFHFILFNNVDGHLYELDGRMPFPVNHGASSEDSLLQDAAKVCREFTEREQGEVRFSAVALC
notes: also called UCHL1_MOUSE
B5: Triosephosphate isomerase (TIM) (Triose-phosphate isomerase) (enzyme, mouse, UniProt P17751 2-249, looked up)
chain: APTRKFFVGGNWKMNGRKKCLGELICTLNAANVPAGTEVVCAPPTAYIDFARQKLDPKIAVAAQNCYKVTNGAFTGEISPGMIKDLGATWVVLGHSERRHVFGESDELIGQKVSHALAEGLGVIACIGEKLDEREAGITEKVVFEQTKVIADNVKDWSKVVLAYEPVWAIGTGKTATPQQAQEVHEKLRGWLKSNVNDGVAQSTRIIYGGSVTGATCKELASQPDVDGFLVGGASLKPEFVDIINAKQ
B6: Phosphate carrier protein; mitochondrial precursor (PTP) (other, mouse, UniProt Q8VEM8 46-357, looked up)
chain: AVEEYSCEFGSMKYYALCGFGGVLSCGLTHTAVVPLDLVKCRMQVDPQKYKGIFNGFSITLKEDGVRGLAKGWAPTLIGYSMQGLCKFGFYEVFKALYSNILGEENTYLWRTSLYLASSASAEFFADIALAPMEAAKVRIQTQPGYANTLREAVPKMYKEEGLNAFYKGVAPLWMRQIPYTMMKFACFERTVEALYKFVVPKPRSECTKAEQLVVTFVAGYIAGVFCAIVSHPADSVVSVLNKEKGSTASQVLQRLGFRGVWKGLFARIIMIGTLTALQWFIYDSVKVYFRLPRPPPPEMPESLKKKLGLTE
B7: Glyceraldehyde-3-phosphate dehydrogenase (GAPDH) (enzyme)
chain: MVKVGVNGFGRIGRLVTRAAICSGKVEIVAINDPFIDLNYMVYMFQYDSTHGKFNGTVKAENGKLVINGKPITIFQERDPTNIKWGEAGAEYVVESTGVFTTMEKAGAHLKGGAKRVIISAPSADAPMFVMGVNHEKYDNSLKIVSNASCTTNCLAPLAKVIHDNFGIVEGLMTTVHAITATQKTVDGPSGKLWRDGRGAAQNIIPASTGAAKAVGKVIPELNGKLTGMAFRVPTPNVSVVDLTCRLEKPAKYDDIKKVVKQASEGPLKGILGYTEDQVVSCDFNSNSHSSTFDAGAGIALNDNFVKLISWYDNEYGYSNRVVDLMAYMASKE
B8: Excitatory amino acid transporter 2 (Sodium-dependent glutamate/aspartate transporter 2) (other, mouse, UniProt P43006 1-572, looked up)
chain: MASTEGANNMPKQVEVRMHDSHLSSDEPKHRNLGMRMCDKLGKNLLLSLTVFGVILGAVCGGLLRLASPIHPDVVMLIAFPGDILMRMLKMLILPLIISSLITGLSGLDAKASGRLGTRAMVYYMSTTIIAAVLGVILVLAIHPGNPKLKKQLGPGKKNDEVSSLDAFLDLIRNLFPENLVQACFQQIQTVTKKVLVAPPSEEANTTKAVISMLNETMNEAPEETKIVIKKGLEFKDGMNVLGLIGFFIAFGIAMGKMGEQAKLMVEFFNILNEIVMKLVIMIMWYSPLGIACLICGKIIAIKDLEVVARQLGMYMITVIVGLIIHGGIFLPLIYFVVTRKNPFSFFAGIFQAWITALGTASSAGTLPVTFRCLEDNLGIDKRVTRFVLPVGATINMDGTALYEAVAAIFIAQMNGVILDGGQIVTVSLTATLASIGAASIPSAGLVTMLLILTAVGLPTEDISLLVAVDWLLDRMRTSVNVVGDSFGAGIVYHLSKSELDTIDSQHRMQEDIEMTKTQSIYDDKNHRESNSNQCVYAAHNSVVIDECKVTLAANGKSADCSVEEEPWKREK
notes: also called EAA2_MOUSE; GLT-1

The binders below were run against APP-TAP-AICD (human, UniProt P05067 18-695) (assay: streptavidin purification of APP-TAP-AICD from brain homogenate; iTRAQ 116/114, transgenic mouse 75 vs control mouse 72; MALDI-TOF/TOF;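 further: relative protein abundance in the transgenic versus control pull-down, limited to proteins with high quality scores and above-average enrichment, without full normalization across the whole measurement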).
Description: Shown are all proteins that have high quality scores and are enriched above average in the m75 sample. Purified bait protein is given underlined. Other already known interaction partners of AICD or putatively biologically relevant proteins are given in bold. As full normalization over the entire measurement was not possible through the GPS explorer software suite, this conservative estimate had to be taken for determining the enriched vs. the non-enriched proteins. […] Ranking is in order of abundance ratio.

Question: B1 was tested. Which iTRAQ ratio did it give?
Answer: 5.96

Question: How did the iTRAQ ratio turn out when B2 was run?
Answer: 5.32

Question: With B3 as the binder, how does the iTRAQ ratio read?
Answer: 4.71

Question: B4 was tested. Which iTRAQ ratio did it give?
Answer: 4.68

Question: How did the iTRAQ ratio turn out when B5 was run?
Answer: 4.61

Question: Which iTRAQ ratio does the source give for B6 here?
Answer: 4.61

Question: With B7 as the binder, how does the iTRAQ ratio read?
Answer: 4.54

Question: Which iTRAQ ratio does the source give for B8 here?
Answer: 4.44
